Laboratory results published in patent US20240124590A1 (ULTRAHUMAN EIGHT, published 2024).
Like-named read-outs stand apart in the source and are kept apart here.

Legend:
[1] = molecular target: T1, human FZD5 (frizzled class receptor 5) on transfected HEK293 cells (human, UniProt Q13467 27-585); test: cell microarray re-array, transfected HEK293
T1 construct: also called FZDS; FZ5
Description: (§1) Antibody binding was detected using AF647 fluorescent secondary anti-human IgG1 antibody. Primary hits (duplicate spots) were identified by analysing fluorescence (AF647 and ZsGreen1) on ImageQuant. Vectors encoding all hits were sequenced to confirm their correct identities. […] Slides were analysed as above. Flow cytometry confirmation screen: Expression vectors encoding ZsGreen1 only, or ZsGreen1 and PD1, FZDS, KDR or ULBP2, were transfected into human HEK293 cells. Each live transfectant was incubated with […] of each of the test antibodies and the Isotype control antibody. Cells were washed, and incubated with the same AF647 anti-human IgG Fc detection antibody as used in the cell microarray screens. Cells were again washed, and analysed by flow cytometry using an Accuri flow cytometer (BD). A 7AAD live/dead dye was used to exclude dead cells, and ZsGreen1-positive cells (i.e. transfected cells) were selected for analyses.

[2] = molecular target: T2, human KDR (VEGFR2) on cells (human, UniProt P35968 20-1356); test: cell microarray re-array, transfected HEK293
T2 construct: Transfected HEK293 cells (arrays, flow cytometry) and human VEGFR2 reporter cells
Description: as §1

[3] = molecular target: T3, human PD1 expressed on cells (human, UniProt Q15116 25-288); test: cell microarray re-array, transfected HEK293
T3 construct: also called human PD1+ CHO cells; PD1-transfected HEK293 cells
T3 sequence (Q15116 25-288 limits assumed): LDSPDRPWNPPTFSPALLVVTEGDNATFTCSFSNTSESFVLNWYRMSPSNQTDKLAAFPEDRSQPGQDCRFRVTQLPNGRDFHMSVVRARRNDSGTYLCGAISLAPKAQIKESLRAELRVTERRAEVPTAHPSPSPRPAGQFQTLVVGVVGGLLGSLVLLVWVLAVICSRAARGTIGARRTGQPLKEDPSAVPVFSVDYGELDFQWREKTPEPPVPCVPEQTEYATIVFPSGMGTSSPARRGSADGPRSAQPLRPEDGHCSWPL
Description: as §1

[4] = molecular target: T4, human ULBP2 (UL16 binding protein 2) on transfected HEK293 cells (human, UniProt Q9BZM5 26-217); test: cell microarray re-array, transfected HEK293
T4 sequence: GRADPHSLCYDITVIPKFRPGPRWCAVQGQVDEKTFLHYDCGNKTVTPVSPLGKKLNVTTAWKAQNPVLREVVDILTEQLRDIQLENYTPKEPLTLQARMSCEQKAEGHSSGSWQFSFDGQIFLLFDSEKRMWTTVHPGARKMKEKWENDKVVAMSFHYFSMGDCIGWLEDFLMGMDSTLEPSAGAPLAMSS
Description: as §1

[5] = molecular target: T5, cyno PD1 protein (construct not stated) (cynomolgus monkey, UniProt Q15116 25-170 (human entry), limits assumed); test: direct ELISA
T5 construct: may be two constructs; also called cyno PD1 in the Alphascreen screen
T5 chain: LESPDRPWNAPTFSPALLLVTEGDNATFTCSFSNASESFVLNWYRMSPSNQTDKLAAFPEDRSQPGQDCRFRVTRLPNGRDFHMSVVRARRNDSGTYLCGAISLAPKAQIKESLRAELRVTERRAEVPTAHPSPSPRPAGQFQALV

[6] = molecular target: T6, human PD1 protein (construct not stated) (human, UniProt Q15116 25-170, limits assumed); test: direct ELISA
T6 construct: Coated protein of the off-target ELISA; whole entry named
T6 sequence (Q15116 25-170 limits assumed): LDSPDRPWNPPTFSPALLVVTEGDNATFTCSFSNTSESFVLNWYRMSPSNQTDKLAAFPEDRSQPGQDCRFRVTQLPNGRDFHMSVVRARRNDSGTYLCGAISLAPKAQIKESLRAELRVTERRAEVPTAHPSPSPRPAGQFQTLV

[7] = molecular target: T7, recombinant ectodomain of rhesus VEGFR2 (rhesus); test: direct ELISA
T7 construct: whole entry named
T7 chain: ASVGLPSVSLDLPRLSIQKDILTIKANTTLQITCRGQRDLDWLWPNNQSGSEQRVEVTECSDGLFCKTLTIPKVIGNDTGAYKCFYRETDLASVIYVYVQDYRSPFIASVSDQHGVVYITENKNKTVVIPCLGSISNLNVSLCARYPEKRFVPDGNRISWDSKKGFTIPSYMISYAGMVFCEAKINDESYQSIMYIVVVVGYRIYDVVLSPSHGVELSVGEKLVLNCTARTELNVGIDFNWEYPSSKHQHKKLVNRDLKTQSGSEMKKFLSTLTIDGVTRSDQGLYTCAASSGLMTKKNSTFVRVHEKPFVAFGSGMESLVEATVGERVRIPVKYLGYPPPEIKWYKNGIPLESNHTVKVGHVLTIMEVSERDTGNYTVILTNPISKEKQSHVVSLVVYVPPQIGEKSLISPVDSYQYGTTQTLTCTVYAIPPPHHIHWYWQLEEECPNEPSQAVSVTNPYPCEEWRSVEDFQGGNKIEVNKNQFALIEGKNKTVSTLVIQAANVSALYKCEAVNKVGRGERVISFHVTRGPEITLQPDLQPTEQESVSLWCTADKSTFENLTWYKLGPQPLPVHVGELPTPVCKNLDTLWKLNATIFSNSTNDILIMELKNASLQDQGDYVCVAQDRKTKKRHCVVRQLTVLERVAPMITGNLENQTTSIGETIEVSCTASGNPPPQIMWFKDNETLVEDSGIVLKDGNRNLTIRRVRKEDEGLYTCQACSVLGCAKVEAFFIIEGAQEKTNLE

[8] = molecular target: T8, recombinant ectodomain of human VEGFR2 (human, UniProt P35968 20-764); test: direct ELISA
T8 construct: whole entry named

[9] = molecular target: T9, human monomeric VEGFR2-his protein (human, UniProt P35968 20-764); test: SPR (Biacore), IgG captured, VEGFR2-his analyte
T9 construct: Soluble analyte; whole entry named; also called human VEGFR2-his; not shown: his tag
Description: (§2) Affinity (KD) of purified IgGs was determined via SPR with antigen in-solution on a Biacore 3000 (GE). A mouse anti-human antibody (CH1 specific) was immobilized on a CM5 Sensor Chip to a level of 2000 RU in acetate buffer at pH 4.5 using amine coupling following the Wizard instructions for two channels. One channel was used for background signal correction. The standard running buffer HBS-EP pH 7.4 was used. Regeneration was performed with a single injection of 10 μl of 10 mM Glycine at pH 1.5 at 20 μl/minute. IgG samples were injected for 2 minutes at 50 nM at 30 μl/min followed by and off-rate of 60 seconds. […] The obtained sensorgrams were analysed using the Biacore 3000 evaluation (BIAevaluation) software. The KD was calculated by simultaneous fitting of the association and dissociation phases to a 1:1 Langmuir binding model.

[10] = molecular target: T10, rhesus monomeric VEGFR2-his protein (rhesus); test: SPR (Biacore), IgG captured, VEGFR2-his analyte
T10 construct: Soluble analyte; whole entry named; also called rhesus VEGFR2-his; not shown: his tag
T10 chain: T7 chain
Description: as §2

[11] = molecular target: T11, cyno PD1 expressed on CHO-K1 cells (cynomolgus monkey, UniProt Q15116 25-288 (human entry)); test: flow cytometry, PD1 CHO-K1 cells
T11 construct: also called cyno PD1+ CHO cells
T11 chain: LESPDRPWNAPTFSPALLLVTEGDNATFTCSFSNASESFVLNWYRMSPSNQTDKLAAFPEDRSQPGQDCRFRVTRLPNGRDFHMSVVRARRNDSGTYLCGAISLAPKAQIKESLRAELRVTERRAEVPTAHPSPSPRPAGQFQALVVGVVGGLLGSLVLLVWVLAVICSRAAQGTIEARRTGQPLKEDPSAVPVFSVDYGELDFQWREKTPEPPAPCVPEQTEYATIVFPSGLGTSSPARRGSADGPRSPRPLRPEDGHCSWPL
Description: (§3) Purified IgGs were tested in FACs for binding to human and cyno PD1 expressed on CHO-K1 stable cell lines and CHO-K1 wild-type cells. […] Binding of IgGs was detected with a mouse anti-human IgG conjugated to FITC. Results were analyzed by examining the Mean Fluorescence Intensity (MFI) of 10000 cells per sample in the BL-1 channel detector of a flow cytometer (Attune™ NxT Acoustic Focusing Cytometer, Invitrogen/ThermoFisher Scientific).
(§4) Antibodies to PD1 were analysed for concentration-dependent binding at the cell surface via flow cytometry. Initial analyses were performed on CHO cells stably-transfected with human or cyno PD1.

[12] = molecular target: T3, human PD1 expressed on cells; test: flow cytometry, PD1 CHO-K1 cells
Description: as §3, §4

[13] = molecular target: T12, cynomolgus monkey PD1 His tag (monomeric) (cynomolgus monkey, UniProt Q15116 25-170 (human entry), limits assumed); test: SPR (Biacore); cyno KD against human KD
T12 construct: Soluble monomeric analyte; whole entry named; also called monomeric cyno PD1; not shown: His tag
T12 chain: T5 chain
Description: as §2
(§5) Biacore analyses of binding affinity was performed for all IgGs to solution-phase, monomeric human and cyno PD1 proteins.

[14] = molecular target: T13, biotinylated human PD1-His/AviTag (human, UniProt Q15116 25-170, limits assumed, biotinylated); test: Alphascreen competition vs IgG1-Mab005 (humanized)
T13 construct: Alphascreen antigen; whole entry named; also called biotinylated monomeric human PD1; not shown: His/AviTag
T13 sequence (Q15116 25-170 limits assumed): as the sequence (Q15116 25-170 limits assumed) above
Description: The AlphaScreen assay (Perkin Elmer) was performed in a 25 μl final volume in 384-well white microtiter plates (Greiner). The reaction buffer contained 1×PBS pH 7.3 (Oxoid, Cat. nr. BRO014G) and 0.05% (v/v) Tween® 20 (Sigma, Cat. nr. P9416). Purified IgG samples were titrated in three fold serial dilutions starting at 500 nM final concentration and incubated with biotinylated human PD1-His/AviTag at 0.6 nM final concentration for 20 minutes at room temperature. […] Followed by addition of the Streptavidin Donor beads at 20 μg/ml (final concentration) and incubation for 30 minutes at room temperature. The emission of light was measured in the EnVision multilabel plate reader (Perkin Elmer) and analysed using the EnVision manager software. Values were reported as Counts Per Second (CPS) and corrected for crosstalk.

[15] = molecular target: T12, cynomolgus monkey PD1 His tag …; test: SPR (Biacore), IgG captured, monomeric PD1-His analyte
Description: as §2, §5

[16] = molecular target: T14, human PD1 His tagged (monomeric) (human, UniProt Q15116 25-170, limits assumed); test: as above
T14 construct: Soluble monomeric analyte; whole entry named; also called monomeric human PD1; not shown: His tag
T14 sequence (Q15116 25-170 limits assumed): as the sequence (Q15116 25-170 limits assumed) above
Description: as §2, §5

[17] = molecular target: T15, human PD1 human Fc tagged recombinant protein (human, UniProt Q15116 25-170, limits assumed); test: direct ELISA, IgG1null on coated PD1-Fc
T15 construct: also called huPD1-Fc; huPD-1-Fc; not shown: human Fc tag
T15 sequence (Q15116 25-170 limits assumed): as the sequence (Q15116 25-170 limits assumed) above
Description: (§6) Binding and cross-reactivity of the lead panel to the recombinant proteins was initially assessed by binding ELISA. The human PD1 human Fc tagged recombinant protein and the cynomolgus monkey PD1 human Fc tagged recombinant protein were coated to the surface of MaxiSorp™ flat-bottom 96 well plate at 1 μg/ml. […] The Fabs were detected using mouse anti-c-myc antibody followed by donkey anti-mouse IgG conjugated to horseradish peroxidase. The IgGs were detected using the mouse anti-human IgG conjugated to horseradish peroxidase. Binding signals were visualized with 3,3′,5,5′-Tetrannethylbenzidine Substrate Solution (TMB) and the absorbance measured at 450 nm.
(§7) The purified IgGs described above were then tested for binding to human and cyno PD1-Fc in direct titration ELISA format. […] As the ELISA EC50 values for directly binding IgGs are strongly influenced by avidity, rather than true 1:1 binding affinity, we then proceeded to perform higher-sensitivity, solution-phase epitope competition and Biacore binding affinity determinations, as outlined below.

[18] = molecular target: T16, cynomolgus monkey PD1 human Fc tagged recombinant protein (cynomolgus monkey, UniProt Q15116 25-170 (human entry), limits assumed); test: direct ELISA, IgG1null on coated PD1-Fc
T16 construct: also called cyPD1-Fc; cyPD-1-Fc; not shown: human Fc tag
T16 chain: T5 chain
Description: as §6, §7

[19] = molecular target: T3, human PD1 expressed on cells; test: cell-based or functional assay
[20] = molecular target: T15, human PD1 human Fc tagged recombinant …; test: direct ELISA, IgG1null on coated PD1-Fc; remark: listed apart in the source
Description: as §6, §7

[21] = molecular target: T16, cynomolgus monkey PD1 human Fc tagged …; test: direct ELISA, IgG1null on coated PD1-Fc
Description: as §6, §7

T1 sequence (Q13467 27-585 limits assumed): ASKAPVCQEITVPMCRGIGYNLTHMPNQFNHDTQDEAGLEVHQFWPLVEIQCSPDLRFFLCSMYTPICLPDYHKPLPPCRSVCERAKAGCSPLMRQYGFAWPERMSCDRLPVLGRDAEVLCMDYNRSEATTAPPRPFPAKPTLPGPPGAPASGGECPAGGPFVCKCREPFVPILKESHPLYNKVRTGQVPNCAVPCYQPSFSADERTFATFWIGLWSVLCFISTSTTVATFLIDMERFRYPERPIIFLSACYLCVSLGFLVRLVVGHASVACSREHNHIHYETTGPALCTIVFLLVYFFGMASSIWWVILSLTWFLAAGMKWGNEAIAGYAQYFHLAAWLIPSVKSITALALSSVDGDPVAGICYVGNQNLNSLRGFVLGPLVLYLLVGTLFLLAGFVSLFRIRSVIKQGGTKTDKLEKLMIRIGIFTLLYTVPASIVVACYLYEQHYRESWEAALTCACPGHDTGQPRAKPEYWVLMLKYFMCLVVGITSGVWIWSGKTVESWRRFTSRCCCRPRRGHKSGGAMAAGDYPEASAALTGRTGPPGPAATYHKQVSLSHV

B1: mVH/mVL Mab005-IgG1 (antibody, V domains shown)
VH: EVMLVESGGGLVKPGGSLKLSCAASGFTFSSYMMSWVRQTPEKRLEWVATISGGGANTYYPDSVKGRFTISRDNAKNTLYLQMSSLRSEDTALYYCARQLYYFDYWGQGTTLTVSS
VL: DIQMTQSPASQSASLGEGVTITCLASQTIGTWLTWYQQKPGKSPQLLIYTATSLADGVPSRFSGSGSGTKFSFKISSLQAEDFVTYYCQQVYSIPWTFGGGTKLEIK
notes: Murine PD1-mVH/PD1-mVL on human IgG1null + Ckappa; also called original murine hybridoma v-domains
B1: binds [1]; binds [2]; binds [3]. B1: binds [4]; binds [5]; binds [6]. B1: binds [7]; binds [8]; binds [9]. B1: binds [10].

B2: IgG1-Mab005 (humanized) (antibody, V domains shown)
VH: EVQLVESGGGLVQPGGSLRLSCAASGFTFSSYMMSWVRQAPGKGLEWVATISGGGANTYYPDSVKGRFTISRDNAKNSLYLQMNSLRAEDTAVYYCARQLYYFDYWGQGTTVTVSS
VL: DIQMTQSPSSLSASVGDRVTITCLASQTIGTWLTWYQQKPGKAPKLLIYTATSLADGVPSRFSGSGSGTDFTLTISSLQPEDFATYYCQQVYSIPWTFGGGTKVEIK
notes: tested as human IgG1null (IgG1 with L234A, L235A, G237A) with human Ckappa; also called Mab005-IgG1 (humanized); Mab005-IgG1 (hum)
B2 was tested, and the EC50 [11] was 6.53 nM, the EC50 [12] was 2.32 nM and the “human/cyno affinity differential (fold)” value [13] was 8 fold. It also gave an IC50 [14] of 2.14 nM, a Kd [15] of 32 nM and a koff [15] of 0.0028 s⁻¹. For the same binder, the kon [15] was 88000 M⁻¹ s⁻¹, the Kd [16] was 4 nM and the koff [16] was 0.00047 s⁻¹. It also gave a kon [16] of 120000 M⁻¹ s⁻¹, an EC50 [17] of 0.137 nM and an EC50 [18] of 0.152 nM. The “EC50 (ng/ml), IgG1null blockade of human PD1/PD-L1” value [19] was 285 ng/mL, the EC50 [20] was 0.114 nM and the EC50 [21] was 0.132 nM.
